# Measurements as given in the supplement of paper PMC10567573.
# B1: ZNF449 (parent)
# chain: TLHQRTHTEERPFKCNYCGKSFRQ
# B2: VTI1B (parent)
# chain: NKLLLSIIILLELAILGGLVYYKF
# Variants of: B1
# Assay: protein stability index of a GFP-peptide fusion (GPS, HEK-293T) (PSI 1-6); higher = more stable
# Conditions: c terminus: a fixed tail appended
# 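Further: lentivirally expressed fusions sorted by FACS into six bins by GFP to DsRed ratio, PSI derived from sequencing read proportions per bin multiplied by bin number.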
row,Variant,protein stability index
1,TLHQRTHTEEKPFKCNYCGKSFRQ [R11K],2.5
2,TLHQRTHTFERPFKCNYCGKSFRQ [E9F],1.25
3,TLHQRTHTRERPFKCNYCGKSFRQ [E9R],2.26
4,TLHQRTHTEERPGKCNYCGKSFRQ [F13G],2.79
5,TLVQRTHTEERPFKCNYCGKSFRQ [H3V],1.98
6,TLHQRTHQEERPFKCNYCGKSFRQ [T8Q],2.69
7,TLHQRTHSEERPFKCNYCGKSFRQ [T8S],2.65
8,TLHQRTHFEERPFKCNYCGKSFRQ [T8F],2.34
9,TAHQRTHTEERPFKCNYCGKSFRQ [L2A],2.95
10,TDHQRTHTEERPFKCNYCGKSFRQ [L2D],2.77
11,THHQRTHTEERPFKCNYCGKSFRQ [L2H],2.45
12,TLHQRSHTEERPFKCNYCGKSFRQ [T6S],3.12
13,TLHQRRHTEERPFKCNYCGKSFRQ [T6R],2.28
14,TLHQRTHTEERYFKCNYCGKSFRQ [P12Y],2.77
15,TLHQRTHTEERPFKCSYCGKSFRQ [N16S],3.03
16,MLHQRTHTEERPFKCNYCGKSFRQ [T1M],2.39
17,TLHPRTHTEERPFKCNYCGKSFRQ [Q4P],2.92
18,TLHQRTHTEERPFKCNYCGNSFRQ [K20N],2.37
19,TLHQRTHTEERPFKCNYCGKWFRQ [S21W],2.29
20,TLHQRTHTEERPFKCNYCGKKFRQ [S21K],2.32
21,TLHQRTHTEERPFKCNTCGKSFRQ [Y17T],2.62
22,TLHQRTHTEERPFKCNRCGKSFRQ [Y17R],2.92
23,TLHQVTHTEERPFKCNYCGKSFRQ [R5V],3.27
24,TLHQGTHTEERPFKCNYCGKSFRQ [R5G],1.83
25,TLHQTTHTEERPFKCNYCGKSFRQ [R5T],2.45
26,TLHQQTHTEERPFKCNYCGKSFRQ [R5Q],1.89
27,TLHQRTHTEERPFKCNYCGKSHRQ [F22H],3.05
28,TLHQRTHTEERPFKCNYCSKSFRQ [G19S],2.06
29,TLHQRTHTEERPFKCNYCGKSFRE [Q24E],2.88

# Variants of: B2
# Assay: as above
# Conditions: c terminus: a fixed tail appended
row,Variant,protein stability index
1,NKLLLSIIINLELAILGGLVYYKF [L10N],2.09
2,NKLLLSIIIWLELAILGGLVYYKF [L10W],3.4
3,NKLLLSIIIALELAILGGLVYYKF [L10A],2.44
4,NKLLLSIIIGLELAILGGLVYYKF [L10G],2.46
5,NKLLLSIIIHLELAILGGLVYYKF [L10H],3.04
6,NKLLLSIIIKLELAILGGLVYYKF [L10K],3.36
7,NKLLLSIIIYLELAILGGLVYYKF [L10Y],2.8
8,NKLLLSIIIRLELAILGGLVYYKF [L10R],2.63
9,NKLLLSIIILLELAILGGLVYYKS [F24S],2.46
10,NKLLLSIIILLELAILGGLVYYKN [F24N],1.86
11,NKLLLSIIILLELAILGGLVYYKH [F24H],2.07
12,NKLLLSIIILLELAILGGLVYYKG [F24G],2.52
13,NKLLLSIIILLELAILGGLVYYKA [F24A],2.47
14,NKLLLSIIILLELAILGGLVYYKR [F24R],3.27
15,NKLLCSIIILLELAILGGLVYYKF [L5C],2.61
16,NKLLHSIIILLELAILGGLVYYKF [L5H],3.13
17,NKLLFSIIILLELAILGGLVYYKF [L5F],2.55
18,NKLLVSIIILLELAILGGLVYYKF [L5V],2.08
19,NKLLKSIIILLELAILGGLVYYKF [L5K],2.14
20,NKLLPSIIILLELAILGGLVYYKF [L5P],2.39
21,NKLLTSIIILLELAILGGLVYYKF [L5T],3.88
22,NKLLLSIIILLCLAILGGLVYYKF [E12C],2.57

row,Variant,protein stability index
1,NKLLLSIIILLMLAILGGLVYYKF [E12M],2.4
2,NKLLLSIIILLLLAILGGLVYYKF [E12L],2.33
3,NKLLLSIIILLVLAILGGLVYYKF [E12V],2.85
4,NKLLLSIIILLFLAILGGLVYYKF [E12F],2.17
5,NKLLLSIIILLGLAILGGLVYYKF [E12G],1.55
6,NKLLLSIIILLILAILGGLVYYKF [E12I],2.73
7,NKLLLSIIILLSLAILGGLVYYKF [E12S],2.68
8,NKLLLSIIILLELAILTGLVYYKF [G17T],3.94
9,NKLLLSIIILLELAILYGLVYYKF [G17Y],2.5
10,NKLLLSIIILLELAILVGLVYYKF [G17V],2.85
11,NKLLLSIIILLELAILKGLVYYKF [G17K],3.17
12,NKLLLSIIILLELAILDGLVYYKF [G17D],1.51
13,NKLLLSIIILLELAILWGLVYYKF [G17W],3.38
14,NKLLLSIIILLELAILIGLVYYKF [G17I],2.35
15,NKLLLSIIILLELAILPGLVYYKF [G17P],2.58
16,NKLLLSIIILLELAILCGLVYYKF [G17C],3.4
17,NKLLLSIIILLELAIDGGLVYYKF [L16D],2.8
18,NKLLLSIIILLELAISGGLVYYKF [L16S],2.23
19,NKLLLSIIILLELAIIGGLVYYKF [L16I],1.99
20,NKLLLSIIILLELAITGGLVYYKF [L16T],2.9
21,NHLLLSIIILLELAILGGLVYYKF [K2H],2.48
22,NILLLSIIILLELAILGGLVYYKF [K2I],3.89

row,Variant,protein stability index
1,NPLLLSIIILLELAILGGLVYYKF [K2P],2.43
2,NFLLLSIIILLELAILGGLVYYKF [K2F],3.52
3,NSLLLSIIILLELAILGGLVYYKF [K2S],2.46
4,NMLLLSIIILLELAILGGLVYYKF [K2M],2.6
5,NCLLLSIIILLELAILGGLVYYKF [K2C],2.17
6,NRLLLSIIILLELAILGGLVYYKF [K2R],2.99
7,NWLLLSIIILLELAILGGLVYYKF [K2W],2.8
8,NKTLLSIIILLELAILGGLVYYKF [L3T],2.98
9,NKALLSIIILLELAILGGLVYYKF [L3A],2.92
10,NKGLLSIIILLELAILGGLVYYKF [L3G],2.83
11,NKSLLSIIILLELAILGGLVYYKF [L3S],1.78
12,NKNLLSIIILLELAILGGLVYYKF [L3N],3.2
13,NKDLLSIIILLELAILGGLVYYKF [L3D],3.73
14,NKLLLSIIILLELEILGGLVYYKF [A14E],3.15
15,NKLLLSIIILLELGILGGLVYYKF [A14G],3.17
16,NKLLLSIIILLELKILGGLVYYKF [A14K],2.48
17,NKLLLSIIILLELAILGGLVWYKF [Y21W],2.62
18,NKLLLSIIILLELAILGGLVRYKF [Y21R],2.32
19,NKLLLSIIILLELAILGGLVEYKF [Y21E],2.28
20,NKLLLSIIILLELAILGGLVLYKF [Y21L],3.39
21,NKLLLSIIILLELAILGGLVSYKF [Y21S],1.66
